# Molecular target: microtubule polymerized from porcine brain tubulin, stabilized with paclitaxel (porcine)
# Experiment: co-sedimentation
substance,measurement,value
purified γ stalk–LC1 complex (from UniProt Q9XHH2 1-198),Bmax/Kd,0.053
same,Kd,19 µM

# From article PMC4642857
